Columns and labels:
[1] = biological target: T1, claudin-18.2 antigen (manufacturer: GenScript, batch number: R50092011) (UniProt P56856-2 1-261, limits assumed); experiment: ELISA, plate coated with claudin-18.2 antigen
T1 construct: Bought antigen
T1 sequence (looked up): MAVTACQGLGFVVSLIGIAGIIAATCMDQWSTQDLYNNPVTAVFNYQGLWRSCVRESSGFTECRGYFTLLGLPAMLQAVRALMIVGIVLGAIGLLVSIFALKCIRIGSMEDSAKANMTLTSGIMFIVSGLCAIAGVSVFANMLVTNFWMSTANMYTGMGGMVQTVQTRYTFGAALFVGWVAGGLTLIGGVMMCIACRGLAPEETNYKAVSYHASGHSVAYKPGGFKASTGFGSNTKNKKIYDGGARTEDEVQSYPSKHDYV
Experimental: The ELISA plates were washed three times with PBST and blocked with 5% PBS-milk for 2 h at room temperature. The ELISA plate was washed three times with PBST, and the diluted antibodies were added to the ELISA plate, 30 μL per well, and incubated at room temperature for 60 min. The plates were washed three times with PBST and incubated with anti-human IgG-Fc-HRP (abcam, ab97225) for 50 min at room temperature. The plate was washed 12 times with PBST, and TMB was added, 30 μL per well. The reaction was terminated with stop solution and OD450 was read. The ELISA affinity EC50 was calculated.

[2] = biological target: T1, claudin-18.2 antigen (manufacturer: …); experiment: Gator label-free kinetics, antibody loaded, antigen 2000-500 nM
Experimental: The GATOR instrument and associated software were opened and the Kinetics experimental mode was selected. After data collection, Kinetics fitting was performed to calculate the affinity kinetic parameters. The correlation coefficient R² of all antibodies in the Global fitting mode was greater than 0.95, which met the system suitability requirements and the results were reliable.

Binder | EC50 [1] | Kd [2] | koff [2] | kon [2]
1E7-huVH5huVL2 (antibody, human IgG4 S228P, kappa, humanized 1E7, human IgG4, kappa) heavy: not shown light: DIQMTQSPSSLSASVGDRVTMTCKSSQSLLNSGNQKNYLTWYQQKPGKAPKLLIYWASTRESGVPSRFSGSGSGTDFTLTISSLQPEDFATYYCQNDYSYPFTFGGGTKLEIKRTVAAPSVFIFPPSDEQLKSGTASVVCLLNNFYPREAKVQWKVDNALQSGNSQESVTEQDSKDSTYSLSSTLTLSKADYEKHKVYACEVTHQGLSSPVTKSFNRGEC | 0.496 µg/mL | 5.24 nM | 5.29e-05 s⁻¹ | 10100 M⁻¹ s⁻¹
1E7-huVH5huVL3 (antibody, human IgG4 S228P, kappa, humanized 1E7, human IgG4, kappa) heavy: not shown light: DIQMTQSPSSLSASVGDRVTITCRSSQSLLNSGNQKNYLTWYQQKPGKAPKLLIYWASTRESGVPSRFSGSGSGTDFTLTISSLQPEDFATYYCQNDYSYPFTFGGGTKLEIKRTVAAPSVFIFPPSDEQLKSGTASVVCLLNNFYPREAKVQWKVDNALQSGNSQESVTEQDSKDSTYSLSSTLTLSKADYEKHKVYACEVTHQGLSSPVTKSFNRGEC | 0.0931 µg/mL | 3.21 nM | 3.09e-05 s⁻¹ | 9610 M⁻¹ s⁻¹
1B6-huVH1-HC (IgG1) huVL1 (antibody, humanized 1B6, human IgG1, kappa) heavy: not shown light: DIVMTQSPSSLSVSVGDRVTMTCKSSQSLFNSGNQKNYLTWYQQKPGKAPKLLIYWASTRESGVPDRFSGSGSGTDFTLTISSVQPEDFATYFCQNDYSYPLTFGGGTKLEIKRTVAAPSVFIFPPSDEQLKSGTASVVCLLNNFYPREAKVQWKVDNALQSGNSQESVTEQDSKDSTYSLSSTLTLSKADYEKHKVYACEVTHQGLSSPVTKSFNRGEC | 0.0248 µg/mL | 63.3 nM | 0.00123 s⁻¹ | 19400 M⁻¹ s⁻¹
1B6-huVH3-HC (IgG1) huVL2 (antibody, humanized 1B6, human IgG1, kappa) heavy: not shown light: DIQMTQSPSSLSASVGDRVTMTCKSSQSLFNSGNQKNYLTWYQQKPGKAPKLLIYWASTRESGVPSRFSGSGSGTDFTLTISSLQPEDFATYYCQNDYSYPLTFGGGTKLEIKRTVAAPSVFIFPPSDEQLKSGTASVVCLLNNFYPREAKVQWKVDNALQSGNSQESVTEQDSKDSTYSLSSTLTLSKADYEKHKVYACEVTHQGLSSPVTKSFNRGEC | 0.0614 µg/mL | 10.9 nM | 0.00012 s⁻¹ | 11100 M⁻¹ s⁻¹
1B6-huVH1-HC (IgG1) huVL2 (antibody, humanized 1B6, human IgG1, kappa) heavy: not shown light: DIQMTQSPSSLSASVGDRVTMTCKSSQSLFNSGNQKNYLTWYQQKPGKAPKLLIYWASTRESGVPSRFSGSGSGTDFTLTISSLQPEDFATYYCQNDYSYPLTFGGGTKLEIKRTVAAPSVFIFPPSDEQLKSGTASVVCLLNNFYPREAKVQWKVDNALQSGNSQESVTEQDSKDSTYSLSSTLTLSKADYEKHKVYACEVTHQGLSSPVTKSFNRGEC | 0.0162 µg/mL | 86.7 nM | 0.00171 s⁻¹ | 19700 M⁻¹ s⁻¹
1B6-huVH2-HC (IgG1) huVL1 (antibody, humanized 1B6, human IgG1, kappa) heavy: not shown light: DIVMTQSPSSLSVSVGDRVTMTCKSSQSLFNSGNQKNYLTWYQQKPGKAPKLLIYWASTRESGVPDRFSGSGSGTDFTLTISSVQPEDFATYFCQNDYSYPLTFGGGTKLEIKRTVAAPSVFIFPPSDEQLKSGTASVVCLLNNFYPREAKVQWKVDNALQSGNSQESVTEQDSKDSTYSLSSTLTLSKADYEKHKVYACEVTHQGLSSPVTKSFNRGEC | 0.0403 µg/mL | 9.84 nM | 0.000101 s⁻¹ | 10300 M⁻¹ s⁻¹
1B6-huVH2-HC (IgG1) huVL2 (antibody, humanized 1B6, human IgG1, kappa) heavy: not shown light: DIQMTQSPSSLSASVGDRVTMTCKSSQSLFNSGNQKNYLTWYQQKPGKAPKLLIYWASTRESGVPSRFSGSGSGTDFTLTISSLQPEDFATYYCQNDYSYPLTFGGGTKLEIKRTVAAPSVFIFPPSDEQLKSGTASVVCLLNNFYPREAKVQWKVDNALQSGNSQESVTEQDSKDSTYSLSSTLTLSKADYEKHKVYACEVTHQGLSSPVTKSFNRGEC | 0.0301 µg/mL | 11.8 nM | 0.00013 s⁻¹ | 11000 M⁻¹ s⁻¹
